Laboratory results from PMC11728977, “Crystallographic, kinetic, and calorimetric investigation of PKA interactions with L-type calcium channels and Rad GTPase” (The Journal of Biological Chemistry, 2024).

B1: Rad Ser272 peptide (peptide)
peptide: ARRQAGTRRRESLGK
notes: Rad GTPase C-terminal tail, residues 261-275 around Ser272; also called Rad S272 peptide; S272 peptide; source: synthetic peptide
B2: Rad Ser25 peptide (peptide)
peptide: GAGRERDRRRGSTPW
notes: Rad GTPase N-terminal tail, residues 14-28 around Ser25; also called Rad S25 peptide; source: synthetic peptide
B3: CaV1.2 Ser1981 peptide (peptide)
peptide: RGFLRSASLGRRASFHL
notes: human CaV1.2 (α1c subunit) C-terminal tail, residues 1968-1984 around the PKA site Ser1981; also called S1981 peptide; CaV1.2 S1981 peptide; source: synthetic peptide
B4: CaV1.2 Ser1981 peptide S1975R (peptide)
peptide: RGFLRSARLGRRASFHL
notes: also called S1975R peptide; S1981 (S1975R); source: synthetic peptide
B5: CaV1.2 Ser1981 peptide L1971A (peptide)
peptide: RGFARSASLGRRASFHL
notes: also called L1971A peptide; S1981 (L1971A); source: synthetic peptide
B6: CaV1.2 Ser1981 peptide F1982A (peptide)
peptide: RGFLRSASLGRRASAHL
notes: human CaV1.2 residues 1968-1984 with F1982A (P+1 position); also called F1982A peptide; S1981 (F1982A); source: synthetic peptide

Biological target: catalytic subunit of PKA, isoform alpha, residues 16-351 (PKAcα_(16-351)), preparation for ITC (mouse, UniProt P05132-1 16-351)
Experiment: ITC; peptide or substrate (1.25 to 4.3 mM) titrated into the cell containing PKAc (149 to 204 μM); 4 °C; 50 mM Hepes (pH 7.4), 150 mM KCl, 5 mM MgCl2, 2 mM TCEP; 0.5 mM AMP-PNP in both solutions
Conditions: both partners purified

| Binder | Kd [µM] | dH [kcal/mol] | stoichiometry N |
| --- | --- | --- | --- |
| B1 | 126 | -4.06 | 0.98 |
| B2 | 460 | -2.61 | 0.83 |
| B3 | 34 | 3.11 | 0.98 |
| B4 | 532 | 3.35 | 1.08 |
| B5 | 18 | 2.63 | 1.06 |
| B6 | 147 | 2.46 | 0.99 |
